Reference: patent publication US20110183896A1 (published 2011)

Tests used:
[1] = target: Cry3Bb toxin of Bacillus thuringiensis, recombinant from E. coli, chymotrypsin-treated (Bacillus thuringiensis, UniProt Q06117 160-652); assay: ELISA saturation binding
[2] = target: Cry3Aa toxin of Bacillus thuringiensis tenebrionis, chymotrypsin-treated (Bacillus thuringiensis subsp. …, UniProt P0A379 159-644); assay: ELISA
Chain of Cry3Aa toxin of Bacillus thuringiensis tenebrionis, chymotrypsin-treated (P0A379 159-644): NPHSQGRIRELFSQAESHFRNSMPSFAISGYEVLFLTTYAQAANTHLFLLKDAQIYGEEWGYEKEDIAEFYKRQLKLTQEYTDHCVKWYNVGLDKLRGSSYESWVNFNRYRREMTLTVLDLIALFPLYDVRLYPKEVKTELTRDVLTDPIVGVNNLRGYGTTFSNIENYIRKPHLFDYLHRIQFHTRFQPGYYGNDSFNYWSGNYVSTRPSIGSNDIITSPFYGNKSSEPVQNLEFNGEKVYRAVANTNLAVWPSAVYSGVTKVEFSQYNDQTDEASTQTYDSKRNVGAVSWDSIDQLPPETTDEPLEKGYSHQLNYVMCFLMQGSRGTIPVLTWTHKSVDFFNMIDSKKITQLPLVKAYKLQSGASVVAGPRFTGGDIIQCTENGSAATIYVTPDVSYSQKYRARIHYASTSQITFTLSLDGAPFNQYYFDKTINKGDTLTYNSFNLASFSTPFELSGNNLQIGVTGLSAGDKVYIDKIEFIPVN

Chain of Cry3Bb toxin of Bacillus thuringiensis, recombinant from E. coli, chymotrypsin-treated (Q06117 160-652): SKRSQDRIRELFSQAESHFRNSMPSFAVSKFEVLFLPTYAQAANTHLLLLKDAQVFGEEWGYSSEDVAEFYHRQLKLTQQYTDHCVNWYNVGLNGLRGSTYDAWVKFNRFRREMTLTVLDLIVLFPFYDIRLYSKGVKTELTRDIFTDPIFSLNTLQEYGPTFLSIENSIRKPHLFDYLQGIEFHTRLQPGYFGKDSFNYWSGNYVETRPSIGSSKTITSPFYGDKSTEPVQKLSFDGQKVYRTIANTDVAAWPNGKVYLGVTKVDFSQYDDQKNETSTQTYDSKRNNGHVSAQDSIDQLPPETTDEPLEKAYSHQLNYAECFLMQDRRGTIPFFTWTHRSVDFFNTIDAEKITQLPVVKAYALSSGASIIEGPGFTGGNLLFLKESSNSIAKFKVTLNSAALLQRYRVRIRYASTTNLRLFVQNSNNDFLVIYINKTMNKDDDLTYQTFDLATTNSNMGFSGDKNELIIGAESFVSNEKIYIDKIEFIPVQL

B1: Dv-CR8-10 peptide (cadherin repeats 8-10 of the Diabrotica virgifera virgifera cadherin-like protein), biotinylated (peptide)
chain: MAVLMTKDLQCSENLNKDGEVGEGIIGEDIDDGDNAKIDFSVLSIVDKETKNDIQESFNISKIDSDYVLNDTLKKVHLIAFEDLKGKYGTYEVTLHMHDEGDPMQTTDPDPTLTLTIEKWNYQTPSIIFPENDQTYIVLSDQQPGQPLALFNNTGTSNTLPDFSATDGETKDYSKWDVKFSYTQTNYEDDKIFVIDHIQPCVSQLQVSKHFNSDLVRSKKYKLTITASVKDGAEQEGEAGYSTSANISIVFLNNDAQPIFQNSDWSVSFVEFNTTQPAKPLEEQAEYENTKGGLPIYYHFYSENQTLSKYFEVDETSGDLSVIGNLTYDYDQDISFHIVASNDSQVRMLDPRSSLNVTVNFLPRNRRAPQWHHHHHH
modifications: biotinylated (sites not given)
[1]
  Kd: 1.4 nM
[2]
  Kd: 18.8 nM
